From patent US20100129294

Tests used:
[1] = molecular target: Aβ40 fibrils formed from a synthetic Aβ40 peptide
[2] = molecular target: T1, insulin fibrils formed from purified bovine insulin, P01317
T1 chain: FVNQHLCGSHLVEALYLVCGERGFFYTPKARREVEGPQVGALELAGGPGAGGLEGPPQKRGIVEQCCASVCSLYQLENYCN

[3] = molecular target: transthyretin (TTR) fibrils, P02766
[4] = molecular target: β2-microglobulin (β2-M) fibrils, P61769
Chain of β2-microglobulin (β2-M) fibrils, P61769 (P61769 21-119): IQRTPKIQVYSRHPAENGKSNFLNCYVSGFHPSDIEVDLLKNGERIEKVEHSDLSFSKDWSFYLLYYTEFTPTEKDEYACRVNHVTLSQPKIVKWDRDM

B1: nattokinase (protein)
chain: AQSVPYGISQIKAPALHSQGYTGSNVKVAVIDSGIDSSHPDLNVRGGASFVPSETNPYQDGSSHGTHVAGTIAALNNSIGVLGVAPSASLYAVKVLDSTGSGQYSWIINGIEWAISNNMDVINMSLGGPTGSTALKTVVDKAVSSGIVVAAAAGNEGSSGSTSTVGYPAKYPSTIAVGAVNSSNQRASFSSVGSELDVMAPGVSIQSTLPGGTYGAYNGTSMATPHVAGAAALILSKHPTWTNAQVRDRLESTATYLGNSFYYGKGLINVQAAAQ
What does the source list for B1?
loss of negative ellipticity at 218 nm in CD spectra after 1 hr of digestion (40 C, pH 7) [1]: nattokinase degraded all three fibrils; degradation of insulin fibrils at pH 5, 40 C, by CD spectroscopy [2]: At pH 5, nattokinase did not show any activity; degradation of insulin fibrils at pH 5-10, 40 C, by CD spectroscopy [2]: the nattokinase activity increased gradually with increasing pH and reached a maximal activity at pH 10 in the range tested; loss of negative ellipticity at 218 nm in CD spectra after 1 hr of digestion (40 C, pH 7) [2]: nattokinase degraded all three fibrils; degradation of TTR fibrils at pH 7.4 and 37 C, by ThT fluorescence emission at 487 nm [3]: TTR fibrils were almost completely degraded by nattokinase in one hour; degradation of β2-M fibrils at pH 7.4 and 37 C, by ThT fluorescence emission at 487 nm [4]: As for β2-M fibrils, it was degraded near completion in two hours
